Some targets named below: SSBΔC8 (E. coli); SSBΔ151-166 (E. coli); SSBΔ120-166 (E. coli); SSBΔ130-166 (E. coli).
Experiment in all cases: AUC

A word on the stoichiometry N: it is the number of molecules, sites or subunits per partner or assembly. For the substance SSBΔC8 (domain or fragment), the stoichiometry N with SSBΔC8 (E. coli) came to 4.
Turning to SSBΔ151-166 (natural protein), in the test with SSBΔ151-166 (E. coli), the stoichiometry N is 4.
In turn, SSBΔ120-166 (natural protein) returned a stoichiometry N in the test with SSBΔ120-166 (E. coli) of 4.
SSBΔ130-166 (natural protein) yielded a stoichiometry N with SSBΔ130-166 (E. coli) of 4.

The record behind these values is article PMC4419694.
